# Assay results taken from paper PMC10876603.
# Target: microtubules (polymerised α/β-tubulin) (UniProt Q6B856)
# Chain of UniProt Q6B856 (Q6B856 whole entry, looked up): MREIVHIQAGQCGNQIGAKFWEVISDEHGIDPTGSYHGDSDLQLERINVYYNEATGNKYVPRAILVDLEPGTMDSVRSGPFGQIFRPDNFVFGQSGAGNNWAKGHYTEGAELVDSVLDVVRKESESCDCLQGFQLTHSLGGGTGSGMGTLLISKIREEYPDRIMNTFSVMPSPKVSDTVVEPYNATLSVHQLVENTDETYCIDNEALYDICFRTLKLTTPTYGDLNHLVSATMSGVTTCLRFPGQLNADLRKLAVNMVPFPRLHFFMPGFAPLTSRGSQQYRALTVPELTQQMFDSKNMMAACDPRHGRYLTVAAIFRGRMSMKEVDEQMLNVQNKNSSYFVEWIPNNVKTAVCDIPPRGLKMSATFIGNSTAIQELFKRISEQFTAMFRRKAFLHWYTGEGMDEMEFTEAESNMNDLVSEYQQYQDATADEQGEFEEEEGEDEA
substance,measurement,value
"human CEN subcomplex with Borealin R17E, R19E, K20E (CEN-Borealin^MTBM) (from UniProt Q9NQS7 1-58; O15392 1-142; Q53HL2 1-280)","width of bundles of GMpCpp-stabilized rhodamine-labeled MTs (100 nM) after 2 min with 4 μM CEN, TIRF microscopy (single GMpCpp MTs measure 0.34 μm)",0.36 μm
